Reference: publication PMC5737367

Target: Rif1 1709-1916 (UniProt P29539)
Assay: GST pull-down from yeast lysate
Details: reference: wild type; sites S731

Rap1 (from UniProt P11938) S731A
binding against the reference: weaker
